In article PMC9482650, “Quantitative fragmentomics allow affinity mapping of interactomes” (Nature Communications, 2022):

T1: APBA3_1, O96018
T1 sequence (O96018 389-490, limits assumed, looked up): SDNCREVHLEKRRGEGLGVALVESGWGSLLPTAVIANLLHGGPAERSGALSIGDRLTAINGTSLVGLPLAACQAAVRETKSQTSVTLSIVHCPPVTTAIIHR

T2: DVL3, Q92997
T2 sequence (Q92997 244-331, limits assumed, looked up): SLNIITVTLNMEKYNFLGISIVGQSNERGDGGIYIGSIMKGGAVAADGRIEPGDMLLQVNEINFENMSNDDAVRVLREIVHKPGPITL

T3: PTPN13_1, Q12923
T3 sequence (Q12923 1088-1188, limits assumed, looked up): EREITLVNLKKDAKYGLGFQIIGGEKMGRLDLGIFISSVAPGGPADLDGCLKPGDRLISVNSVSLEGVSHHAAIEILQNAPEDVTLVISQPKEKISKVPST

T4: FRMPD1, Q5SYB0
T4 sequence (Q5SYB0 52-145, limits assumed, looked up): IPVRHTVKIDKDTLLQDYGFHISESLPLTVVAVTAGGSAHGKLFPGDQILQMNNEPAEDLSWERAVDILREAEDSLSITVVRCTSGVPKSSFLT

T5: SIPA1L2, Q9P2F8
T5 sequence (Q9P2F8 945-1036, limits assumed, looked up): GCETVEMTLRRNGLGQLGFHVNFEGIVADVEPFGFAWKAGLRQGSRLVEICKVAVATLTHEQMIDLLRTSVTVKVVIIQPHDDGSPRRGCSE

T6: PDZD7_3, Q9H5P4
T6 sequence (Q9H5P4 857-944, limits assumed, looked up): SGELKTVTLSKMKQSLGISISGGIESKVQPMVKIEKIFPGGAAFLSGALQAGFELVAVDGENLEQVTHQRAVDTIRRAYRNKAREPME

T7: SNTG2, Q9NY99
T7 sequence (Q9NY99 68-166, limits assumed, looked up): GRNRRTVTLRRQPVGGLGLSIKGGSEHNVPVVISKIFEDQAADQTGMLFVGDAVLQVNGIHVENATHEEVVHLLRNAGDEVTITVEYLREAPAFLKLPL

T8: RHPN1, Q8TCX5
T8 sequence (Q8TCX5 508-602, limits assumed, looked up): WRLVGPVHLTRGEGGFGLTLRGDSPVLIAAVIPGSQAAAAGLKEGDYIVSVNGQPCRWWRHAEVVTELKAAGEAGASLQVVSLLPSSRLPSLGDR

T9: TIAM2, Q8IVF5
T9 sequence (Q8IVF5 885-986, limits assumed, looked up): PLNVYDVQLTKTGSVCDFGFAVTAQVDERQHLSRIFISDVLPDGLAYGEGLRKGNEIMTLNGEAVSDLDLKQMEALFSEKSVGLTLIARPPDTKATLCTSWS

T10: HTRA4, P83105
T10 sequence (P83105 378-476, limits assumed, looked up): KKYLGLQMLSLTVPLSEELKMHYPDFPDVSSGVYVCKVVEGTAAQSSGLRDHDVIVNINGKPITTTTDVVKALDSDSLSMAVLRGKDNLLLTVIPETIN

T11: RAPGEF6, Q8TEU7
T11 sequence (Q8TEU7 525-625, limits assumed, looked up): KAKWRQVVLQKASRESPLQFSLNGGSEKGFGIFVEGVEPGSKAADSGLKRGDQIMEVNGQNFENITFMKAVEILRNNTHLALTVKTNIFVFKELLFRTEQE


What was measured:
Test in all cases: holdup assay
Set-up in all cases: key: below the threshold = too weak to quantify, mostly under pKd 3.1 to 4
Details in all cases: plain residues with an end cap or a label only (N-terminal biotin on a linker: ado-ado)
[1] = target: T1, APBA3_1, O96018
[2] = target: T2, DVL3, Q92997
[3] = target: FRMPD4, Q14CM0
FRMPD4, Q14CM0, sequence (Q14CM0 67-160): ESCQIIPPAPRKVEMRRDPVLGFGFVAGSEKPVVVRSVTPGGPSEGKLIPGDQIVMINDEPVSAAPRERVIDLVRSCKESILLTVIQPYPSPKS

[4] = target: T3, PTPN13_1, Q12923
[5] = target: Inadl_6, Q8NI35
Inadl_6, Q8NI35, sequence (Q8NI35 1058-1167): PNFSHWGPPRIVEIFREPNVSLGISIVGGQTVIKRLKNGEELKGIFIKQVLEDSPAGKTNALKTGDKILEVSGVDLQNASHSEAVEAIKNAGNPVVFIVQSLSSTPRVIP

[6] = target: LNX1_2, Q8TBB1
LNX1_2, Q8TBB1, sequence (Q8TBB1 371-470): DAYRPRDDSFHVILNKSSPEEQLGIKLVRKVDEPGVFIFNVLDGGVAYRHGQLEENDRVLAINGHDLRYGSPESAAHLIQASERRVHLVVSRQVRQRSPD

[7] = target: T4, FRMPD1, Q5SYB0
[8] = target: FRMPD2_3, Q68DX3
FRMPD2_3, Q68DX3, sequence (Q68DX3 1073-1166): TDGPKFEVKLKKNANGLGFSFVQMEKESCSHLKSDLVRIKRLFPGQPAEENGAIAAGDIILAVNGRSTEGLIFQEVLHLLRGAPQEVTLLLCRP

[9] = target: GRASP, Q7Z6J2
GRASP, Q7Z6J2, sequence (Q7Z6J2 96-193): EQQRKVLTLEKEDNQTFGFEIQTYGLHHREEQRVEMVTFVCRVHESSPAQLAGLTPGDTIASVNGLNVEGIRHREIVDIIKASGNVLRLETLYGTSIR

[10] = target: T5, SIPA1L2, Q9P2F8
[11] = target: T6, PDZD7_3, Q9H5P4
[12] = target: ARHGEF12, Q9NZN5-2
ARHGEF12, Q9NZN5-2, sequence (Q9NZN5 other isoform, or with tags, fused parts or gaps): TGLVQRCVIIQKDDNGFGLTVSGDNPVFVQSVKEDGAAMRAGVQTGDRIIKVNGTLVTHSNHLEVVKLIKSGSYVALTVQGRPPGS

[13] = target: LNX1_1, Q8TBB1
LNX1_1, Q8TBB1, sequence (Q8TBB1 261-371): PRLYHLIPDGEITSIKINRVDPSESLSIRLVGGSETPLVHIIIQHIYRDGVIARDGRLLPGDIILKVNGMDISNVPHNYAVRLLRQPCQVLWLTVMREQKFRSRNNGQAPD

[14] = target: T7, SNTG2, Q9NY99
[15] = target: MAGI2_6, Q86UL8
MAGI2_6, Q86UL8, sequence (Q86UL8 1141-1229): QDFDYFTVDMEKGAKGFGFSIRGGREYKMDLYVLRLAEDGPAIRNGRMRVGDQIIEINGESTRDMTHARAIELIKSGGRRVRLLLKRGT

[16] = target: NHERF4_4, Q86UT5
NHERF4_4, Q86UT5, sequence (Q86UT5 464-550): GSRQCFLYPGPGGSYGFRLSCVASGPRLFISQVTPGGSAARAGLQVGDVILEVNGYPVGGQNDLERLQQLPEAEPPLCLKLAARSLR

[17] = target: T8, RHPN1, Q8TCX5
[18] = target: Inadl_8, Q8NI35
Inadl_8, Q8NI35, sequence (Q8NI35 1425-1530): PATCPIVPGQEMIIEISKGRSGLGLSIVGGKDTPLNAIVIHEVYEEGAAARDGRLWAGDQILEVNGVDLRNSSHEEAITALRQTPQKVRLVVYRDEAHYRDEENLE

[19] = target: MAGI2_3, Q86UL8
MAGI2_3, Q86UL8, sequence (Q86UL8 600-682): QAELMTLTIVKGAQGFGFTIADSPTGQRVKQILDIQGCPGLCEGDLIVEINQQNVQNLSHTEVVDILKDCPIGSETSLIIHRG

[20] = target: GRIP2_4, Q9C0E4
GRIP2_4, Q9C0E4, sequence (Q9C0E4 446-548): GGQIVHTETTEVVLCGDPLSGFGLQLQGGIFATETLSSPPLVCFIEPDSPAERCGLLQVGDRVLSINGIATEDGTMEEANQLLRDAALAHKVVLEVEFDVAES

[21] = target: DLG2_3, Q15700
[22] = target: FRMPD2_1, Q68DX3
FRMPD2_1, Q68DX3, sequence (Q68DX3 770-861): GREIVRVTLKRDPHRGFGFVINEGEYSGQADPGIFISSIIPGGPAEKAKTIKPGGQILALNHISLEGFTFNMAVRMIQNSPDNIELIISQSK

[23] = target: FRMPD2_2, Q68DX3
FRMPD2_2, Q68DX3, sequence (Q68DX3 944-1038): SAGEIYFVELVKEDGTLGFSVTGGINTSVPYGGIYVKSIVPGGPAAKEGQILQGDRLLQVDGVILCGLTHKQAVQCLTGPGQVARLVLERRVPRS

[24] = target: T9, TIAM2, Q8IVF5
[25] = target: PDZRN4_1, Q6ZMN7
PDZRN4_1, Q6ZMN7, sequence (Q6ZMN7 213-318): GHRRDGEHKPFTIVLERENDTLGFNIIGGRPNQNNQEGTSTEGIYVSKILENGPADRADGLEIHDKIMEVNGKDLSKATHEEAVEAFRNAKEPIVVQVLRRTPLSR

[26] = target: T10, HTRA4, P83105
[27] = target: T11, RAPGEF6, Q8TEU7

| pKd [1] | pKd [2] | pKd [3] | pKd [4] | pKd [5] | pKd [6] | pKd [7] | pKd [8] | pKd [9] | pKd [10] | pKd [11] | pKd [12] | pKd [13] | pKd [14] | pKd [15] | pKd [16] | pKd [17] | pKd [18] | pKd [19] | pKd [20] | Binder | other results |
| --- | --- | --- | --- | --- | --- | --- | --- | --- | --- | --- | --- | --- | --- | --- | --- | --- | --- | --- | --- | --- | --- |
| below the threshold | 4.51 | 3.87 | below the threshold | below the threshold | 4.46 | below the threshold | 4.31 | below the threshold | below the threshold | below the threshold | below the threshold | below the threshold | 3.49 | 3.56 | below the threshold | below the threshold | 3.66 | below the threshold | below the threshold | SFISKKEWYV [NECTIN1, Q15223] | pKd [21]: 3.63; pKd [22]: 4.22; pKd [23]: 3.87; pKd [24]: 5.09; pKd [25]: below the threshold; pKd [26]: below the threshold; pKd [27]: below the threshold |
| below the threshold | below the threshold | below the threshold | 3.49 | below the threshold | below the threshold | below the threshold | below the threshold | below the threshold | below the threshold | below the threshold | below the threshold | 3.62 | below the threshold | below the threshold | below the threshold | below the threshold | below the threshold | below the threshold | below the threshold | DRIQSCLSDA [SBF1, O95248] | pKd [21]: 3.78; pKd [22]: below the threshold; pKd [23]: below the threshold; pKd [24]: 4.03; pKd [25]: below the threshold; pKd [26]: below the threshold; pKd [27]: below the threshold |
| below the threshold | below the threshold | 4.17 | below the threshold | below the threshold | below the threshold | below the threshold | below the threshold | 4.37 | below the threshold | 4.43 | 4.62 | 3.72 | below the threshold | below the threshold | below the threshold | 3.82 | below the threshold | below the threshold | below the threshold | LKDDELKTKL [SLCO1A2, P46721] | pKd [21]: below the threshold; pKd [22]: below the threshold; pKd [23]: below the threshold; pKd [24]: below the threshold; pKd [25]: below the threshold; pKd [26]: below the threshold; pKd [27]: below the threshold |
